The assay has as its target T1, CD123-Fc protein (fusion of the extracellular domain of the human CD123 protein with a murine IgG1 Fc … (human; mouse, UniProt P26951 19-305).
T1 construct: extracellular domain; also called fusion protein; not shown: murine IgG1 Fc fragment
T1 sequence (looked up): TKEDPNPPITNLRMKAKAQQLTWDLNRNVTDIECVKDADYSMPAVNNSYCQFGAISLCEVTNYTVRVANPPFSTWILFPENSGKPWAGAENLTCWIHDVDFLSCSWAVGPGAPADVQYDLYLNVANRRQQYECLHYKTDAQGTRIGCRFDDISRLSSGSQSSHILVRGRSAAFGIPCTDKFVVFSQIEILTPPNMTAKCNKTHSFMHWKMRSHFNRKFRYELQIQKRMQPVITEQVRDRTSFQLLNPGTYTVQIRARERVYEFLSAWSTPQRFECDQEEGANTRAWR
Nature of the assay: flow cytometry on transduced T-cells, CD123-Fc fusion protein detected with PE-conjugated anti-mouse Fc. As to the method: Transduction of T-cells with recombinant lentiviral vectors expression the CAR was carried out three days after T-cell purification/activation. Lentiviral vectors were produced by Vectalys SA (Toulouse, France) by transfection of genomic and helper plasmids in HEK-293 cells. Transductions were carried out at a multiplicity of infection of 5, using 10⁶ cells per transduction. CAR detection at the surface of T-cells was done using a recombinant protein consisting on the fusion of the extracellular domain of the human CD123 protein together with a murine IgG1 Fc fragment (produced by LakePharma). Binding of this protein to the CAR molecule was detected with a PE-conjugated secondary antibody (Jackson Immunoresearch) targeting the mouse Fc portion of the protein, and analyzed by flow cytometry. […]
CAR detection was done using a fusion protein in which the extracellular domain of the human CD123 protein was fused to a mouse IgG1 derived Fc fragment. Binding of the CAR at the cell surface with the CD123 portion of the fusion protein was detected with anti-Fc PE-conjugated antibody and analyzed by flow cytometry. FIG. 9 represents the % of CAR+ or of Blue fluorescent protein (BFP+) cells (measured by FACS analysis) at Day 8 or 10 post transduction for two different donors.
In general terms: A flow cytometer gives signals particle by particle.

B1: Klon43-v3 CAR (Klo43-3, anti-CD123 chimeric antigen receptor, structure V-3: Klon43 scFv, CD8alpha hinge, CD8alpha transmembrane domain, 41BB intracellular … (other)
chain: EVKLVESGGGLVQPGGSLSLSCAASGFTFTDYYMSWVRQPPGKALEWLALIRSKADGYTTEYSASVKGRFTLSRDDSQSILYLQMNALRPEDSATYYCARDAAYYSYYSPEGAMDYWGQGTSVTVSSGGGGSGGGGSGGGGSMADYKDIVMTQSHKFMSTSVGDRVNITCKASQNVDSAVAWYQQKPGQSPKALIYSASYRYSGVPDRFTGRGSGTDFTLTISSVQAEDLAVYYCQQYYSTPWTFGGGTKLEIKRTTTPAPRPPTPAPTIASQPLSLRPEACRPAAGGAVHTRGLDFACDIYIWAPLAGTCGVLLLSLVITLYCKRGRKKLLYIFKQPFMRPVQTTQEEDGCSCRFPEEEEGGCELRVKFSRSADAPAYQQGQNQLYNELNLGRREEYDVLDKRRGRDPEMGGKPRRKNPQEGLYNELQKDKMAEAYSEIGMKGERRRGKGHDGLYQGLSTATKDTYDALHMQALPPR
notes: Chimeric antigen receptor on the surface of human T cells (mRNA transfection or lentiviral transduction); 44; In the lentiviral vector the CAR is coupled to BFP through a 2A peptide; also called CAR Klon 43 V3; Klon43 CAR
For B1, the binding result is recorded as “binds”.

B2: 32716-v3 CAR (32716-3, anti-CD123 chimeric antigen receptor, structure V-3: 32716 scFv, CD8alpha hinge, CD8alpha transmembrane domain, 41BB intracellular … (other)
chain: QIQLVQSGPELKKPGETVKISCKASGYIFTNYGMNWVKQAPGKSFKWMGWINTYTGESTYSADFKGRFAFSLETSASTAYLHINDLKNEDTATYFCARSGGYDPMDYWGQGTSVTVSSGGGGSGGGGSGGGGSDIVLTQSPASLAVSLGQRATISCRASESVDNYGNTFMHWYQQKPGQPPKLLIYRASNLESGIPARFSGSGSRTDFTLTINPVEADDVATYYCQQSNEDPPTFGAGTKLELKTTTPAPRPPTPAPTIASQPLSLRPEACRPAAGGAVHTRGLDFACDIYIWAPLAGTCGVLLLSLVITLYCKRGRKKLLYIFKQPFMRPVQTTQEEDGCSCRFPEEEEGGCELRVKFSRSADAPAYQQGQNQLYNELNLGRREEYDVLDKRRGRDPEMGGKPRRKNPQEGLYNELQKDKMAEAYSEIGMKGERRRGKGHDGLYQGLSTATKDTYDALHMQALPPR
notes: Chimeric antigen receptor on the surface of human T cells; 38; In the lentiviral vector the CAR is coupled to BFP through a 2A peptide; also called CAR 32716V3
For the molecule B2, the binding result is recorded as “binds”.

The record behind these values is patent US20170183413A1 (CELLECTIS, published 2017).
